Test results from patent US20220089765A1, “CD31 COMPETITORS AND USES THEREOF” (ENCEFA, priority 2019, published 2022).

What was measured:
[1] = test system: dopaminergic neurons of the right substantia nigra pars compacta; assay: 6-OHDA mouse model, number of DA (TH+) neurons; type: in vivo, mice
Experimental: We aimed at determining whether B08 or D06 anti-CD38 antibodies were neuroprotective in vivo against neurodegeneration induced by oxidative stress. Mouse were administered with 6-hydroxydopamine (6-OHDA) in the right striatum. Since 6-OHDA is an analogue of dopamine, it is transported in dopaminergic neurons through the dopamine transporter, resulting in a specific degeneration and loss of dopaminergic neurons of the right substantia nigra pars compacta. It has been extensively used as a test system for novel symptomatic agents and for assessment of neuroprotective and neurorepair strategies (Galindo et al., 2014. In Kostrzewa (Ed.), Handbook of neurotoxicity (1st Ed., pp. 639-651). New York: Springer-Verlag). Since 6-OHDA is injected unilaterally in the right striatum, left striatum remains unaffected and each mouse is its own control.
Two in vivo mouse models were used: the 6-OHDA mouse model and the MPTP mouse model. For the 6-OHDA mouse model, the intoxication protocol was based on the unilateral stereotaxic intrastriatal injection of 6-OHDA in the right striatum. Intracerebral or intravenous injections of treatments were made either the day before the surgical stereotaxic procedure, concomitantly with 6-OHDA during the surgical stereotaxic procedure, or two days after 6-OHDA injection. Animals were sacrificed 8 days after the surgical stereotaxic procedure.
For unilateral 6-OHDA mouse model, animals were anesthetized using Chloral hydrate (400 mg/kg, i.p.) and placed into a stereotactic frame adapted to mice. The injection was performed using a Hamilton syringe at the following coordinates: AP: […], ML: […], DV: […] (corresponding to the atlas of Franklin and Paxinos, 1997). A total volume of 2.5 μL containing or not 5 μg of 6-OHDA diluted in PBS in the presence or the absence of test treatments was injected. The needle was left in place for 10 min after the injection before retraction.
Mice were sacrificed by cervical dislocation, and beheaded to collect brain and blood samples. The brain was fixed in a paraformaldehyde solution (4%) during 1 day before being soaked in sucrose (30%) during 2 days and then froze at −80° C. for further analysis.
Each brain was sliced using a freezing microtome at −30° C. The thickness of each slice was 20 μm. The slicing was done around the substantia nigra (80 slices from slice 51 to 63 according to Allen Mouse Brain).
Slices were then washed out in PBS and incubated with anti-Tyrosine Hydroxylase to stain dopaminergic neurons (Abcam®) during 2 days, at 4° C., with agitation. Slices were incubated with corresponding secondary antibody in the presence of DAPI (Sigma Aldrich®) to stain cell's nuclei during 2 hours at room temperature, and mounted on gelatin-coated slides.
The slices were imaged using a Nikon TE2000 U equipped with a Hamamatsu ORCE-ER camera or with a Zeiss Axio Vert.A1 equipped with an axiocam 503 mono camera. Image analysis was done using Image J software or Zen (Zeiss®).

[2] = test system: midbrain dopaminergic (TH+) neurons; assay: MPP+ intoxication model in midbrain cell cultures, survival of DA (TH+) neurons; type: cell-based, Wistar rat
Experimental: For this purpose, spontaneously occurring DA cell death was prevented by a treatment combining depolarizing concentrations of K^+ (30 mM) and MK801 (5 μM), a glutamate receptor antagonist used to prevent unwanted excitotoxic insult. The cultures were then exposed to 3 μM MPP between 5 and 7 days in vitro (DIV) to achieve a loss of approximately 50% of DA neurons.
Animals were treated in accordance with the Guide for the Care and Use of Laboratory Animals (National Research Council, 1996), European Directive 86/609, and the guidelines of the local institutional animal care and use committee. Cultures were prepared from the ventral mesencephalon of gestational age 15.5 Wistar rat embryos (Janvier Breeding Center, Le Genest St Isle, France). Dissociated cells in suspension obtained by mechanical trituration of midbrain tissue pieces were seeded at a density of 1.2-1.5×10^5 cells/cm^2 onto tissue culture supports precoated with 1 mg/mL polyethylenimine diluted in borate buffer pH 8.3 as described (Michel et al., 1997. J Neurochem. 69(4):1499-507). The cultures were then maintained in N5 medium supplemented with 5 mM glucose, 5% horse serum, and 0.5% fetal calf serum, except for the first 3 DIV, when the concentration of fetal calf serum was 2.5% to favor initial maturation of the cultures (Guerreiro et al., 2008. Mol Pharmacol. 74(4):980-9). They were fed daily by replacing 70% of the medium. Routinely, mesencephalic cultures were established on Nunc 24-well culture plates (Thermofischer Scientific, Rochester, N.Y.). Note that these cultures contain tyrosine hydroxylase (TH)^+ neurons that were exclusively dopaminergic (Traver et al., 2006. Mol Pharmacol. 70(1):30-40). TH^+ neurons represented approximately 1-2% of the total number of neuronal cells present in these cultures. The evaluation of the survival of DA neurons was performed by counting cells immunopositive for TH as described (Toulorge et al., 2011. Faseb J. 25(8):2563-73).
Treatments with MPP were performed in cultures where the spontaneous death process was prevented by long-term exposure to depolarizing concentrations of K^+ (30 mM), in the presence of the glutamate receptor antagonist MK801 (5 μM) to prevent unwanted excitotoxic insults as described previously (Douhou et al., 2001. J Neurochem. 78(1): 163-74). Treatments with MPP and potential neuroprotective molecules were carried out between 5 and 7 DIV.
The cultures were fixed for 12 min using 4% formaldehyde in Dulbecco's phosphate-buffered saline (PBS), then washed twice with PBS before an incubation step at 4° C. for 24 h with the following antibodies. A monoclonal anti-TH antibody diluted 1/5000 (ImmunoStar, Inc., Hudson, Wis.) was used to assess the survival of DA neurons. Antibody was diluted in PBS containing 0.2% Triton X-100. Detection of the primary antibodies was performed with an Alexa Fluor-488 conjugate of an anti-mouse IgG antibody.

[3] = test system: Dextran Sulfate Sodium (DSS)-induced colitis mouse model; assay: DSS-induced colitis mouse model, colon length; type: in vivo, mice; conditions: 15 mg/kg iv when DSS treatment began; 3% DSS for 5 days
Excerpt: Administration of DSS causes human ulcerative colitis-like pathologies due to its toxicity to colonic epithelial cells, which results in compromised mucosal barrier function. Clinical observations similar to human pathologies, such as weight loss, diarrhea and occult blood in stool, are commonly observed in the DSS model. Moreover, diminution of the colon's length is characteristic of this model.
Experimental colitis was induced in mice by giving drinking water ad libitum containing 3% (w/v) DSS for 5 days, while control mice received tap water only. Test compounds were intravenously administered (15 mg/kg) when DSS treatment began. Mice were sacrificed 9 days after the beginning of DSS treatment.

B1: Clone B08: anti-human CD38 antibody, HCVR SEQ ID NO: 33 and LCVR SEQ ID NO: 39 (antibody, V domains shown)
VH: EVQLVESGGSLVKPGGSLRLSCAASGFTFSNYYMNWVRQAPGKGLEWISSISGSSRSIYYADFVKGRFTISRDNAKNSLYLQMNSLRAEDTAVYYCVRSSDDYYYDYGMDVWGRGTLVTVSS
VL: QSVLTQPASVSGSPGQSITISCAGTSSDVGGSYSVSWYQQHPGKAPKLMIYDDSNRPSGVSNRFSGSKSGNTASLTISGLQAEDEADYYCSSYTDYSTRVFGGGTKL
modifications: HCVR B08; LCVR B08
protection of dopaminergic neurons of the right substantia nigra pars compacta ([1]; 0.1 mg/kg injected intracerebrally concomitantly with 6-OHDA): statistically significantly protected
neuroprotective effect in 6-OHDA model ([1]; 15 mg/kg iv one day before 6-OHDA injection): neuroprotective effect was also observed
neuroprotective activity in 6-OHDA model when degeneration is ongoing ([1]; 15 mg/kg iv two days after 6-OHDA injection): strong neuroprotective activity
neuroprotective effect against MPP+-induced DA cell death, compared with reference clone HB7 ([2]; 3 μM MPP+ between 5 and 7 DIV, each clone and HB7 0.5 μg/mL): stronger neuroprotective effect
neuroprotective effect in the presence of the lysosomal exocytosis inhibitor vacuolin-1 ([2]; 3 μM MPP+, test substance 1 μg/mL, vacuolin-1 10 μM): antagonized
diminution of the colon's length [3]: statistically significantly repressed
